Data taken from paper PMC4586751.

What was measured:
[1] = biological target: F-actin (polymerised chicken muscle G-actin) (chicken) (UniProt P68139); experiment: co-sedimentation
[2] = biological target: E-cad/α monomer (recombinant; entire E-cadherin cytoplasmic tail fused to αE-catenin) (mouse) (UniProt P09803); experiment: ITC
[3] = biological target: E-cadΔ70/α monomer (recombinant; E-cadherin cytoplasmic tail lacking the C-terminal 70 aa fused to αE-catenin) (mouse) (UniProt P09803); experiment: ITC

Kd [1]	Kd [2]	dH [2]	Kd [3]	dH [3]	stoichiometry N [3]	Substance
1600 nM	–	–	–	–	–	E-cadΔ70/α homodimer (recombinant) (from UniProt P09803 736-815) (complex)
–	74 nM	-58 kcal/mol	36.6 nM	-16.9 kcal/mol	1	β-catenin (full-length mouse, recombinant) (from UniProt Q02248 1-781) (natural protein)
